Consider two molecules from US20180162952A1 (AbbVie / Abbott, published 2018).

One may read the Kd as the equilibrium constant for the complex coming apart.

A value given as a limit tells only on which side of the number the result lay.

Experiment [1] concerns the target T1, hPTK7-His (soluble His-tagged human PTK7 extracellular domain) (human, UniProt Q13308 31-704).
T1 construct: also called PTK7-ECD-His; monomeric recombinant hPTK7-His (isoform a)
T1 sequence: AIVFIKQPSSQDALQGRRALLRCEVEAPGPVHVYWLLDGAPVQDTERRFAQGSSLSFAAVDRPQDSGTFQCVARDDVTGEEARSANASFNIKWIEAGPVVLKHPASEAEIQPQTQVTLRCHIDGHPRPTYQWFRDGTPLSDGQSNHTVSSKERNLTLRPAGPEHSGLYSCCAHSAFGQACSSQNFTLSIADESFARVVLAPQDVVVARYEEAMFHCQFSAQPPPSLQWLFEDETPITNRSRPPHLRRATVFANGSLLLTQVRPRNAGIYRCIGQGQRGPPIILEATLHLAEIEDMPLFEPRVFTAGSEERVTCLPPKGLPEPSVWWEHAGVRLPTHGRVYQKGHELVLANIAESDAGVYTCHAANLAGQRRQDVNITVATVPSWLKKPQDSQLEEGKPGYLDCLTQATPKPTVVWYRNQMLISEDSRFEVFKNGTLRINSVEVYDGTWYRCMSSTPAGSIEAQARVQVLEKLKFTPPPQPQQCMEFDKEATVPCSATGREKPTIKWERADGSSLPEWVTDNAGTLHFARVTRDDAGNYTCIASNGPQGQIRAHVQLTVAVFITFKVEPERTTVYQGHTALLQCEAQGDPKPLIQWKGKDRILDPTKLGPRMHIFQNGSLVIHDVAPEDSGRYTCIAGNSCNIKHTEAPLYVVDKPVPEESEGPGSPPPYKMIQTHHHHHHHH
Nature of the experiment: Biacore (superscript B); column Affinity (nM). On the technique in general: In SPR one partner is held on a chip, and binding of the other changes the refractive index at the surface.

For experiment [2], the target named is T2, PTK7 ECD Ig domains 6-7 Fc fusion (human).
T2 chain: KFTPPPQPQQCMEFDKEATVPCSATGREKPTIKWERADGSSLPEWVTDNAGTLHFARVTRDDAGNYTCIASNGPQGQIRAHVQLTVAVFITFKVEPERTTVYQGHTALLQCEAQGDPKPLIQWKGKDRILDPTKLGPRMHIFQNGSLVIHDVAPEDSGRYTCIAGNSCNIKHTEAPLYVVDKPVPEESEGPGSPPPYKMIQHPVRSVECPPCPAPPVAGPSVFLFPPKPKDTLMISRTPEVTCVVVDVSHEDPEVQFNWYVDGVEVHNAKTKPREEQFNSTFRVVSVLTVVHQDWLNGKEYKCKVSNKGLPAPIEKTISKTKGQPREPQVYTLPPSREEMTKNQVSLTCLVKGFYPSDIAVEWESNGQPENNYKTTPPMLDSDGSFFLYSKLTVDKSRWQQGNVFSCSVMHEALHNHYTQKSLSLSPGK
Nature of the experiment: ELISA, Ig-domain Fc fusion captured by anti-human IgG Fc. (In general: ELISA stands for enzyme-linked immunosorbent assay.)

For experiment [3], the target named is T3, PTK7 ECD Ig domains 1-4 Fc fusion (human).
T3 chain: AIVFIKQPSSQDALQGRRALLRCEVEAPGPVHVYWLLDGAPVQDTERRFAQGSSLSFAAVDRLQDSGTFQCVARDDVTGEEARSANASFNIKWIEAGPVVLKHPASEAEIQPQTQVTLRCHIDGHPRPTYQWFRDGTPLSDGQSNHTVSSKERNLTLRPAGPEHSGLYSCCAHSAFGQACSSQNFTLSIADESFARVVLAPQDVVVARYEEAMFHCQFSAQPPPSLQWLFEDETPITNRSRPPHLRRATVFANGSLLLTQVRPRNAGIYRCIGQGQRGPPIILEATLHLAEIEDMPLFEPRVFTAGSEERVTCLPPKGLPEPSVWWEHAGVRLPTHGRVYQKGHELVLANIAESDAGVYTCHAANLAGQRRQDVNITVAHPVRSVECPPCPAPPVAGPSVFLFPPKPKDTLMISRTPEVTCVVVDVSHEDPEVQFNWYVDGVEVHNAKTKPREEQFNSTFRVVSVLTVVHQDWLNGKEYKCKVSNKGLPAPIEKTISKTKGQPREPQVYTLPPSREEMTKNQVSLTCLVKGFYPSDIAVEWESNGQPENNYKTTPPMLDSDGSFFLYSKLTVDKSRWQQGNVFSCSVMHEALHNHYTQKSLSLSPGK
The description is as above.

The target in experiment [4] is T4, PTK7 ECD Ig domains 1-5 Fc fusion (human).
T4 chain: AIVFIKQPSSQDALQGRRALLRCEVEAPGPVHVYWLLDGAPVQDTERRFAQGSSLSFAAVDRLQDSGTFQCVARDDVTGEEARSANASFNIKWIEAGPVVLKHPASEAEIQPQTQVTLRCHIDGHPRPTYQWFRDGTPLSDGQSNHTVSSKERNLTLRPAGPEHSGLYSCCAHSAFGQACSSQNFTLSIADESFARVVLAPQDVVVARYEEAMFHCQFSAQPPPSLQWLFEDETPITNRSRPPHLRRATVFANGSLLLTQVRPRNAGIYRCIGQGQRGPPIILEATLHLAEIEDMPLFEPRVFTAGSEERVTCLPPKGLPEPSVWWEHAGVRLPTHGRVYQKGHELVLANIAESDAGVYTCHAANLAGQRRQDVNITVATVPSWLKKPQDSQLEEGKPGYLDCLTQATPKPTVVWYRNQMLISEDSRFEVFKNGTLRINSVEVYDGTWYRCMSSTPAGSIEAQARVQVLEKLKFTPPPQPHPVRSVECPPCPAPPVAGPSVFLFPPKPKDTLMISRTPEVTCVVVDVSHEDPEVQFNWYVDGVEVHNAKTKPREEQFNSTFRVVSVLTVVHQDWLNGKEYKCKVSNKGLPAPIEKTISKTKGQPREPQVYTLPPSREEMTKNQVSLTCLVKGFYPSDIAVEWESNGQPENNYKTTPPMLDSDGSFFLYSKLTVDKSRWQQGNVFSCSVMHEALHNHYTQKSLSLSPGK
Described as above.

B1: SC6.10.2 (antibody, V domains shown)
VH: QVQLQQSGAELVRPGVSVKISCKGSGYRFTDYPIHWVKQSHAKSLEWIGIISTYYGDVTNNPKFRGKATMTVDKSSTTAYMELARLTSEDSAIYYCARNDLFAYWGQGTLVTVSA
VL: DIVMTQSQKFMSTSVGDRVNVTCKASQNVGTNVVWYQQKTGQSPKALIHSASYRYSGVPDRFTGSGSGTDFTLTLSNVQSEDLAEYFCQHYNSFPYTFGGGTKLEIKR
notes: Murine monoclonal antibody from a hybridoma; also called H10.2; H10
In experiment [1], B1 came in with an equilibrium dissociation constant (Kd) of 5.6 nM. The binding result in experiment [2] is “no binding”; in experiment [3] it was “binds”; in experiment [4] it was “binds”.

B2: SC6.2.35 (antibody, V domains shown)
VH: QVQMQQSGAELMKPGASVKLSCKATGYTFTGYWIEWVKQRPGHGLEWIGEILPGSGRSNSNEKFKGKATFTADTSSNTAYMQLSSLTTEDSAIYYCARGKLSWGQGTLVTVSA
VL: DIVLTQSPASLAVSLGQRATISCRASESVDSFGNSFMHWYQQKPGQPPKLLIYAASNLGSGVPARFSGSGSGTDFSLNIHPVEEDDSAMYFCQQSKEVPRTFGGGSRLEIKR
notes: Murine monoclonal antibody from a hybridoma; also called H2.35; SC6.H2
For B2, in experiment [1], the Kd was under 0.1 nM. For the same molecule, the binding result in experiment [2] is reported as “no binding”; in experiment [3] it was “binds”; in experiment [4], “binds”.
